Laboratory results taken from publication PMC8778713, “Knockout of Arabidopsis thaliana VEP1, Encoding a PRISE (Progesterone 5β-Reductase/Iridoid Synthase-Like Enzyme), Leads to Metabolic Changes in Response to Exogenous Methyl Vinyl Ketone (MVK)” (Metabolites, 2021).

Key:
Experiment in all cases: purified protein
Format in all cases: biochemical, Arabidopsis thaliana
purified protein [1] = substrate: C=CC(C)=O; details: 0.2 mM NADPH; substrate 0.05 to 1.6 mM
purified protein [2] = substrate: NC(=O)C1=CN([C@@H]2O[C@H](COP(=O)(O)OP(=O)(O)OC[C@H]3O[C@@H](n4cnc5c(N)ncnc54)[C@H](OP(=O)(O)O)[C@@H]3O)[C@@H](O)[C@H]2O)C=CC1; details: progesterone as the substrate; varied: cofactor
purified protein [3] = substrate: CC(=O)[C@H]1CC[C@H]2[C@@H]3CCC4=CC(=O)CC[C@]4(C)[C@H]3CC[C@]12C; details: 0.2 mM NADPH; substrate 0.05 to 1.6 mM

B1: rAtStR2 (A. thaliana steroid reductase 2) (Arabidopsis thaliana) (protein)
chain: MGSENGSLMRRNEVDENVALIFGVTGLVGREIVKTLLMSKPGWRIYGVARNPEINSMTKMYNFISCDLLNASETKQRLSPLQDIVSHVFWVTWSGEFPLDTDECCVQNKTMLMNALDAILPNAKRLKHFSLQTGMKHYVSLVEETMARGEGSSLYYYSEECPRKSSGKNFYYVLEDLLKEKITRSSVVWSVQRPGLLMGSSSRTLYNFMGSLCVYGAMCKYLNLPFVFGGTRECWEESYIDGSDSNLVAEQHIFAATSGKVREKGEAFNAINGVGFTWKEIWPEIGKKLGVQVNETTMFDEGFWFGREMVERKHVWDEIVVKEKLVRTEIEDLANWYFLDALFRCPFKLLGKREKVDRFGFKRKYRTLDSVLYWIDVMRDEKLIPL
notes: tag removal not mentioned
Purified protein [1]
  Km: 157.5 µM
  kcat: 0.03 s⁻¹
  kcat/Km: 163 M⁻¹ s⁻¹
Purified protein [2]
  Km: 41.0 µM
  kcat: 0.12 s⁻¹
  kcat/Km: 2930 M⁻¹ s⁻¹
Purified protein [3]
  Km: 64.7 µM
  kcat: 0.15 s⁻¹
  kcat/Km: 2310 M⁻¹ s⁻¹
